How the values were obtained:
[1] = substrate: O=P(O)(O)O[C@H]1O[C@H](CO)[C@@H](O)[C@H](O)[C@H]1O; assay: purified protein; assay type: biochemical, Thermocrispum agreste; conditions: free enzyme, 0.01-45 mM G1P, 2 mM UTP, 3 mM MgCl2, 50 mM Hepes, pH 7.0, 50°C
[2] = substrate: O=c1ccn([C@@H]2O[C@H](COP(=O)(O)OP(=O)(O)OP(=O)(O)O)[C@@H](O)[C@H]2O)c(=O)[nH]1; assay: purified protein; assay type: biochemical, Thermocrispum agreste; conditions: free enzyme, 0.05-6 mM UTP, 30 mM G1P, 3 mM MgCl2, 50 mM Hepes, pH 7.0, 50°C

B1: TaGalU (Thermocrispum agreste) (protein)
chain: MTASAEHQTFTTAIVPAAGLGTRFLPTTKSVPKELLPVVDTPAIELVADEARQAGAERLVIVTSPAKQSIAAYFRPAPELERSLEEKGKTGQLAKIRRAPELLEVEVAIQEQALGLGHAVACAEPNLGPEDDVVAVLLPDDLVLPHGILERMAKVRAEHGGSVLCAFDIPKEEISAYGVFDVSDTDDADVKRVHGMVEKPPAEQAPSTFAAAGRYLLDRAIFDALRRIEPGAGGELQLTDAVALLIQEGHPVHVVVHRGVRHDLGNPGDFLRAAVDFALQDPDYGPELRAWLTDRIARP
notes: full-length, N-terminal His10 tag (pET16bP, no cleavage mentioned), codon-optimized gene (911 bp insert), expressed in E. coli BL21(DE3) pLysS; theoretical mass 33,678 Da; hexamer of about 193 kDa by SEC; EC 2.7.7.9
**Q.** Which results are given for B1?
**A.** Km [1]: 440 µM; Vmax [1]: 1110 µmol/min/mg; kcat [1]: 598 s⁻¹; kcat/Km [1]: 1.36e+06 M⁻¹ s⁻¹; Km [2]: 150 µM; Vmax [2]: 1700 µmol/min/mg; kcat [2]: 914 s⁻¹; kcat/Km [2]: 6.09e+06 M⁻¹ s⁻¹
